From publication PMC10352329 come the findings set out here.

Common to all, as to assay: ITC
The target of experiment [1] is H2B (1–27) unmodified peptide (Homo sapiens). The note with it: domain or fragment; chains chain; fluorescently labeled with a His tag Labeling Kit (microscale thermophoresis only). In general terms: Microscale thermophoresis detects binding through changes in fluorescence in a small temperature gradient.
Experiment [2] addresses H4 (1–20) K5ac/K8ac peptide (Homo sapiens). The note with it: domain or fragment.
The target in experiment [3] is H4 (1–20) unmodified peptide (Homo sapiens). The settings on record: domain or fragment; chains chain; fluorescently labeled with a His tag Labeling Kit (microscale thermophoresis only).

Chain of H2B (1–27) unmodified peptide (Homo sapiens) (main, as listed by the source): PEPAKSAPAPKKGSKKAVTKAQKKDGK

B1: human p300BRP (residues 1048–1282), wild type, Q09472 1048-1282 (protein)
chain: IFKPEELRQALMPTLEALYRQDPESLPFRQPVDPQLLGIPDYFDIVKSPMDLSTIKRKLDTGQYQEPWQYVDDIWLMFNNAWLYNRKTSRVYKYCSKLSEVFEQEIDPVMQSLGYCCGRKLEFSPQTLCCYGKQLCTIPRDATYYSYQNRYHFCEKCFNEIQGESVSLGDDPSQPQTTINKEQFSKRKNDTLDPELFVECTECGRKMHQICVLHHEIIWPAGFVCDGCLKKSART
In the case of B1, the Kd in experiment [1] was > 500 µM; in experiment [2], 240 µM; in experiment [3], > 500 µM.

As usually defined, the Kd is the constant that tells how readily two partners part at equilibrium.
